From patent US20050064507A1, “Determining kinase specificity” (priority 2003, published 2005)

Legend:
Type in all cases: biochemical
[1] = molecular target: T1, PKC-zeta (Homo sapiens, UniProt Q05513); experiment: In vitro kinase assay: peptide phosphorylation by PKC-zeta
T1 construct: purchased Calbiochem
T1 sequence (Q05513 1-592): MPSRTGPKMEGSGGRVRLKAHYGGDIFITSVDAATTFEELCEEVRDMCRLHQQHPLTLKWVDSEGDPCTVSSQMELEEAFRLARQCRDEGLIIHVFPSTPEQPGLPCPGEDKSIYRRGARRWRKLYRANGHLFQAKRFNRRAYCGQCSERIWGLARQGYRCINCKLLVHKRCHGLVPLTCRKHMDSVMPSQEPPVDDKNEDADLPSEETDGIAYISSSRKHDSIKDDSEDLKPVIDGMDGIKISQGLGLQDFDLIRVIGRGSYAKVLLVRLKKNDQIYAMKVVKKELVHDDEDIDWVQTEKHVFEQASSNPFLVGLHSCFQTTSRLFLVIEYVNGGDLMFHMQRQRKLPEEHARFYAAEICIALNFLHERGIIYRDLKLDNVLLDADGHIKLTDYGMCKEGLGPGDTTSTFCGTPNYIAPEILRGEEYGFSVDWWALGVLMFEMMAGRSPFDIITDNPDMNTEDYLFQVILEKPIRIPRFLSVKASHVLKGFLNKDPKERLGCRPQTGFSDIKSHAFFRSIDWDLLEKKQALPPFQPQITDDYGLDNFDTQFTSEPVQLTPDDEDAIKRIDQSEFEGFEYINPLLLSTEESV

[2] = molecular target: T2, PKC-epsilon (Homo sapiens, UniProt Q02156); experiment: In vitro kinase assay: peptide phosphorylation by PKC-epsilon; settings: peptide concentration 1 uM
T2 construct: purchased Calbiochem
T2 sequence (Q02156 1-737): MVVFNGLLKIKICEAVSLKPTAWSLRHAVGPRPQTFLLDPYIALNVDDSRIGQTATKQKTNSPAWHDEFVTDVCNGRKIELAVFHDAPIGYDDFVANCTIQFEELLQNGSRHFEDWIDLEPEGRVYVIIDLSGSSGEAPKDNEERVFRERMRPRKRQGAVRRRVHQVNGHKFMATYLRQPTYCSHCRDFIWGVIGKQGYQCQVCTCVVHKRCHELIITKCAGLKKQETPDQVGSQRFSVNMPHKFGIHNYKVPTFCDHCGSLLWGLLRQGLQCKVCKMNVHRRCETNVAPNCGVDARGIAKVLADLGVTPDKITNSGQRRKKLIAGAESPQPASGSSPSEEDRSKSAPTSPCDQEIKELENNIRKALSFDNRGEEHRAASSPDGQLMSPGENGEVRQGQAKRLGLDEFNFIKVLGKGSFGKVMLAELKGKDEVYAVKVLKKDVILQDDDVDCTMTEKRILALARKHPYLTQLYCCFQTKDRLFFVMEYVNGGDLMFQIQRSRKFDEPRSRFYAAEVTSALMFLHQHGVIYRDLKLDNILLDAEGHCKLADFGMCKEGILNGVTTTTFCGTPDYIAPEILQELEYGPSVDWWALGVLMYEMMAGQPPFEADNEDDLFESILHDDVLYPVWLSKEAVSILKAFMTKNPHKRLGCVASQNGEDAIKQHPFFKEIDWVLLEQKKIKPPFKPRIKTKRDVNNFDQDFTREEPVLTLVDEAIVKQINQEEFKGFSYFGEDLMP
Outline: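 Active PKC-epsilon (5-20 ng per well) phosphorylated biotinylated peptides in duplicate at 30° C. for about 10 minutes. The PKC buffer was 100 mM HEPES, 0.05% Triton-X100, 1 mM CaCl2, 20 mM MgCl2, 0.2 mg/ml phosphatidyl serine and PMA 100 ng/ml, with 100 μM ATP including ^32P-gamma ATP. Peptides were captured on streptavidin plates, washed, and counted by scintillation, with stoichiometry kept below 5%.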

[3] = molecular target: T3, PKC-alpha (Homo sapiens, UniProt P17252); experiment: In vitro kinase assay: peptide phosphorylation by PKC-alpha
T3 construct: purchased Calbiochem
Outline: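 Purified active human PKC-alpha, 5-20 ng per well, phosphorylated biotinylated peptides in duplicate wells with 100 μM ATP including 1 uCi/well of ^32P-gamma ATP. The buffer was 100 mM HEPES, 0.05% Triton-X100, 1 mM CaCl2, 20 mM MgCl2, 0.2 mg/ml phosphatidyl serine and PMA 100 ng/ml. Reactions ran at 30° C., usually for 10 minutes, keeping stoichiometry under 5%. They were stopped with ATP/EDTA, captured on streptavidin plates, washed, and counted by scintillation.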

Substance: 167 (GLPAPGEDKSIYRRGSRRWR) [compound 167]
- phosphorylation by PKC zeta ([1]; peptide concentration 1 uM): 5
- phosphorylation by PKC zeta ([1]; peptide concentration 10 uM): 37
- phosphorylation by PKC epsilon [2]: 6
- phosphorylation by PKC alpha ([3]; peptide concentration 1 uM): 27
- phosphorylation by PKC alpha ([3]; peptide concentration 10 uM): 7
